According to patent US20240002497A1 (Merck Sharp & Dohme, published 2024):
Read-outs that look alike come from different tables or passages of the source.

B1: F0103265B04-FLAG3-HIS6 (VHH)
VHH: EVQLVESGGGLVQPGGSLRLSCAAPSFIFSNNYMEWYRQAPGKQRDWVARITGRGNTNYLDSVKGRFTISRDDAKNTVYLEIDSLKPEDTAVYYCSALWYGGRAWGKGTLVTVSS
B2: 69AVB (Fc fusion)
chain: EVQLVESGGGLAQPGGSLRLSCAASGPVFNINRMAWYRRAPGKQRELVAYVTPTGDISYTDSVKGRFTISRDGSKRWSLQMNSLTPEDTAVYYCRALLQPDSYSNTRTYWGQGTLVTVSS
notes: also called F010301656-5GS-Fc; F10301656* (ISVD with human IgG1 Fc); not shown: 5GS linker; human IgG1 Fc

Key:
huNav1.7α [1] = target: T1, huNav1.7α (human, UniProt Q15858 1-1988); assay: cell-based or functional assay
huNav1.7α + β1 [2] = target: huNav1.7α + β1 (human); assay: cell-based or functional assay
huNav1.7α + β1 [3] = target: huNav1.7α + β1 (human); assay: cell-based or functional assay; remark: listed apart in the source
rhNav1.7α + β1-β2-β3 [4] = target: rhNav1.7α + β1-β2-β3 (rhesus monkey); assay: cell-based or functional assay
ratNav1.7α [5] = target: T2, ratNav1.7α (rat, UniProt O08562 1-1984); assay: cell-based or functional assay
T2 sequence (O08562 whole entry): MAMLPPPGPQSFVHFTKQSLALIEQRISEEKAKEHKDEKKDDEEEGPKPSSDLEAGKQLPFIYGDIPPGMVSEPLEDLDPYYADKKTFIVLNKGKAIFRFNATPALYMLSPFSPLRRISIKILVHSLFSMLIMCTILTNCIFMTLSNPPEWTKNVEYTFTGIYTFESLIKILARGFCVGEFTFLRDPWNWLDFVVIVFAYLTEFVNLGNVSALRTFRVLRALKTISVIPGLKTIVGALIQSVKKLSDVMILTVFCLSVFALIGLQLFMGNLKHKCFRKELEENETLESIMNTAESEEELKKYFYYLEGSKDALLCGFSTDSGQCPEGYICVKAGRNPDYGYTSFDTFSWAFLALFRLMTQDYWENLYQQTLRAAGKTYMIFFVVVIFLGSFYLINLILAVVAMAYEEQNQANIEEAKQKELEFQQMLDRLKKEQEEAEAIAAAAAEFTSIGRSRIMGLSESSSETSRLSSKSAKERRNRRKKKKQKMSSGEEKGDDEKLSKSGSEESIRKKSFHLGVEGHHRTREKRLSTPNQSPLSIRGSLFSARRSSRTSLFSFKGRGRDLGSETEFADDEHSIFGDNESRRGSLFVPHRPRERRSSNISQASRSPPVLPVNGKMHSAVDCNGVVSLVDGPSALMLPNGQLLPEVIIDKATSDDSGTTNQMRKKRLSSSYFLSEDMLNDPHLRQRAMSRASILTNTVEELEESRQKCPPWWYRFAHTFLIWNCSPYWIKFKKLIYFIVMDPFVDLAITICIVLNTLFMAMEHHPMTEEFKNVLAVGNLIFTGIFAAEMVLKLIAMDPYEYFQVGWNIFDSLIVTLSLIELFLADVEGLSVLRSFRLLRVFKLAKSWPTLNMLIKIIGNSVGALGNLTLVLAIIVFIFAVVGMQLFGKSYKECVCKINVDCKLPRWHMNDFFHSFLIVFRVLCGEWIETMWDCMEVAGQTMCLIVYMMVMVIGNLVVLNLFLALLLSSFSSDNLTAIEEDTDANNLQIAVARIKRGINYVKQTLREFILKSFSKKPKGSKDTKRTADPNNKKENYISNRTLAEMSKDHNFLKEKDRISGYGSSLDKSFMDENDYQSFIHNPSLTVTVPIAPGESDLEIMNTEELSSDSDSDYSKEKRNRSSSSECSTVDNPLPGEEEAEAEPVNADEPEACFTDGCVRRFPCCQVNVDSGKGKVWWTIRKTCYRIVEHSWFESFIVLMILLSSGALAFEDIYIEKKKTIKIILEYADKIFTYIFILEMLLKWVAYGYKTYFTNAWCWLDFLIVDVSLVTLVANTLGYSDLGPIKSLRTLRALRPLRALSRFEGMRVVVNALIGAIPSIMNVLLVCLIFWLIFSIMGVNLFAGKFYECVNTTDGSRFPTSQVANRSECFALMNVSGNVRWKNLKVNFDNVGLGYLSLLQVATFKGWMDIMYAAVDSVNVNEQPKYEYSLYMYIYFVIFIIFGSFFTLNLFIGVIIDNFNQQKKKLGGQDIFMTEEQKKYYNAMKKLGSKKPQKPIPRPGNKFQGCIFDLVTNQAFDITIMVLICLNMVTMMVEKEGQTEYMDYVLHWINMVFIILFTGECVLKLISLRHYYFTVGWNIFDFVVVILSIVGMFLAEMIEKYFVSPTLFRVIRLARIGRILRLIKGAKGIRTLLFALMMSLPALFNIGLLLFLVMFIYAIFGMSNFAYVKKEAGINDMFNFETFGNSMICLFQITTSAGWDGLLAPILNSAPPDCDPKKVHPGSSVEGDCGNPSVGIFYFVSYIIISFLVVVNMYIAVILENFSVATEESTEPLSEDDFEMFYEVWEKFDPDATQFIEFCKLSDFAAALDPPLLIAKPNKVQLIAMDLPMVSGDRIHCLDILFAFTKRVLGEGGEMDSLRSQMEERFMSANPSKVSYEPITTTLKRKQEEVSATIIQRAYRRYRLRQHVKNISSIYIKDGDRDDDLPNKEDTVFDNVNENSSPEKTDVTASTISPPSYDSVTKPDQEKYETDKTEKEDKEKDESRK

huNav1.7α + β1 [6] = target: huNav1.7α + β1 (human); assay: cell-based or functional assay; remark: listed apart in the source
rhNav1.7α + β1-β2-β3 [7] = target: rhNav1.7α + β1-β2-β3 (rhesus monkey); assay: cell-based or functional assay; remark: listed apart in the source
huNav1.7α + β1 [8] = target: huNav1.7α + β1 (human); assay: cell-based or functional assay; remark: listed apart in the source
rhNav1.7α + β1-β2-β3 [9] = target: rhNav1.7α + β1-β2-β3 (rhesus monkey); assay: cell-based or functional assay; remark: listed apart in the source
ratNav1.7α [10] = target: T2, ratNav1.7α; assay: cell-based or functional assay; remark: listed apart in the source
huNav1.7α + β1 [11] = target: T3, huNav1.7α + β1 (human); assay: binding FACS, HEK
T3 construct: HEK293 cells; also called huNav1.7-beta1; huNav1.7-β1

huNav1.7α [12] = target: T1, huNav1.7α; assay: binding FACS, HEK

Binder | Qpatch IC50 [M], HEK cells (huNav1.7α [1]) | Qpatch IC50 (huNav1.7α + β1 [2]) | Human SA ratio of QPatch IC50 (huNav1.7α + β1 [3]) | QPatch electrophysiology IC50 [M], HEK cells (huNav1.7α + β1 [3]) | QPatch electrophysiology IC50 [M], HEK cells, + 10 µM human SA (huNav1.7α + β1 [3]) | QPatch electrophysiology IC50 [M], HEK cells (rhNav1.7α + β1-β2-β3 [4]) | QPatch electrophysiology IC50 [M], HEK cells (ratNav1.7α [5]) | Qpatch IC50 [M], HEK cells (huNav1.7α + β1 [6]) | Qpatch IC50 [M], HEK cells (rhNav1.7α + β1-β2-β3 [7]) | Qpatch IC50 (huNav1.7α + β1 [8]) | Qpatch IC50 (rhNav1.7α + β1-β2-β3 [9]) | Qpatch IC50 (ratNav1.7α [10]) | EC50 (huNav1.7α + β1 [11]) | EC50 (huNav1.7α [12])
B1 | 1.2e-07 M | 120 nM |  |  |  |  |  |  |  |  |  |  |  | 
B2 |  |  | 2 | 1.3e-08 M | 2.6e-08 M | 8e-09 M | 2.1e-08 M | 1.3e-08 M | 8e-09 M | 13 nM | 8 nM | 21 nM | 9 nM | 11 nM
